Results: article PMC2346476

Molecular target: recombinant His6-tagged Drosophila PP1α87B (pET28a) (Drosophila) (UniProt P12982)
Sequence of UniProt P12982 (P12982 whole entry): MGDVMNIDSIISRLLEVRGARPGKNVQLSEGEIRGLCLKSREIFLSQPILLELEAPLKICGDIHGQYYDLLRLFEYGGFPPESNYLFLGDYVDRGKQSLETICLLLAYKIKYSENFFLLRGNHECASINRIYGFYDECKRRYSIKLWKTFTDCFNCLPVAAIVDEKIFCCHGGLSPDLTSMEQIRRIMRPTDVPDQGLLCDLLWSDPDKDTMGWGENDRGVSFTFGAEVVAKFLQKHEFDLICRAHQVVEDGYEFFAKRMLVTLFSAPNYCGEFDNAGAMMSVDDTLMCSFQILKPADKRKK

inhibition of the myelin basic protein phosphatase activity of recombinant PP1α87B by Uri; IC50 of Uri relative to its IC50 against PP1β9C: 25 fold
B1: recombinant His6-tagged Drosophila Uri (pET-28m), bacterially expressed (natural protein)
chain: MDRREDALLQALQTNASETERWEAFKRDNESTIRNLDKFAKNLSVEVMVPIGRKALMPGELIHTNELLVGHYEGYFSACSSHKAKEICQYRLKLAEEQLKKLAVENDLWQKKLHTPFAEGAVPSGDQVEIVEDFNEESHNKWLAEHRKRMRQQKQKERLEREAEPVKKDNEVLRKLEEREMMEELGLDPDNIDEDQLHDMLNQEPLKSTNESSPKSLTQEEEDELWKKLEAEEQNEADELSSEAEESLKTTDNLVRQLMSGETETPSSKKRTAGTNRNVEIQDPISEDDGDDDDEGDQEEEVRTIREQMSLLPNEDREPFLRAQLHVLKAKMRKIQKVNFISDELIHLMNVVVMLEDDLQDLVFEQELEASEEEEEVVENNHLPDEPSKELSTVSESSTNKRRISFALDDEKLEFRREETVAEMLPNAKKNSRDIIKLNAPLKPAGDPQPASIKTKRQTTQDILQKVERNIEFVKENQSVQDFDLLNRIMEESTGLINTLHISFTHSGAIPSPSSDQSDGIPGKPSDFYVRYEKDRARPNDSFPIYVNGFEGEEHVKVPIMSEAARGSAYEDPRSQFSKPNSSEICFTHSGSITPTSNDQSDDIPGNPFDFYEKYEKDRAKFSKSNSSEGDATDPESATKSILRNKSAVDLEPHNVNQQPKKGRKVRNQKKKERTLDDDLRDMSAYQKVMHDLVEKEPTAPEPLPPGKFIDSHAPKKRVSRFKEQRALNKT
